Source: the DeepSol protein solubility set

Assay: soluble on expression in E. coli; label from the status in PepcDB or PDB records

| Sequence | soluble on expression in E. coli |
| --- | --- |
| MQLSKFFQKPQLLFRVAQPKDKENILKFLDAHFAKEEPCARALKLSPETSRGIFTTTVTRCLNFPFSTVVLQENDEIAACLLASVWNRTDPIDSADFNSSGMPENLKLFVQFINSAHSNFWKIAPPNVNSIIHREIGSVAPQFTRKGIATRMVTTNMTKTNLKKYNIGGVLSETSSLANQIVLQKAGFKCLKELPYSAIVDSKGNRVLRPDDGTTSLCLNFKPIEEYENLPE | not soluble |
| MPISEPTWAELPFLFKSAVVELLPYKNRCCLRKCSKSDQFLVDSTPNHLHDVAIHTCENYTVFTYSDSPDTVFTLKYFKNIGENDLKIEYSESPVLFVPGKNQKFIFKTSIHVENLASEADDVDFALDDFKLLLNRLNCKKSIINMIPNQYNPIAHPDRTIEFRQRLLDLMTSSFPKKSIKSKSLVIHWHQETQEIAEILQVFHTKTLKNLEFHDRNATWHMAPIIGTEQWKGARSVLLEHLSDVKIEELKDFNEIQMHVRDSGEQELWTVIQNFIRKNLHGSSFHFTYRQAEPNVDRILATFNVPPRDEPITARTRLRSVLGSRFIHTQRFQMPSTDLILVVMISEKEVMGTVCHVDQVNVEAKVERGLLR | not soluble |
| MGSDKIHHHHHHVDDRPGTTGIRRTNPVMTDPKHRTEAPFDEQIIREYLIDNPDFFGRYPELLLAMRMSHTERGTVSLLERRQEMYRNRVAQLEEEITALMTQARRNEKIFRFNNDLQFKLLASAALGDVRQILSQALMSEFGFTHVRLITVHDVDSELSAIWSNRLARGHYFGRLTASESRRLFGSEVGSVALTRLSEHCGQVVFAIASQDPAHFHPEMDNLLLDQLRRILDHLLPRL | not soluble |
| MQSIKGNHLVKVYDYQEDGSVLLTCDAEAKNITWFKDGKMIGFLTEDKKKWNLGSNAKDPRGMYQCKGSQNKSKPLQVYYRMGSADDAKKDAAKKDDAKKDDAKKDGSDGNEEMGGITQTPYKVSISGTTVILTCPQYPGSEILWQHNDKNIGGDEDDKNIGSDEDHLSLKEFSELEQSGYYVCYPRGSKPEDANFYLYLRARV | soluble |
| MWGRYEKLRIFYDPTRAIYDSGADYLTREKHRLVVIANSAWGLLLNLSCYYDEVLEKRKIPFGKQEIDDDMDKVSALKRKFKDISEIKVGDGWEYPFNYEQGMKELDEVLLKYIPFFEEER | not soluble |
| EVEGDKTVPNNVANAPFAGTEPLAKKLGLTEVNSLNTAVAATSSFVQFNAIASHSTFASPSGTLADVNHHAEMQKENADFLMDNALSDVSDTTVLK | not soluble |
| MLPEIWKHDSPYFRPEGDTRGEAVLPIGMPMRQQYDFSSSRKNPYAAKLKKPVTIRLDEESISYFKSMSEETGIPYQSLINLYLKECAASGKRLNLSWK | not soluble |
| GPGSMIQSDIVSYVGEMGDVPDALLITPLKDRKSSVYLTKYEVARIIGERARQIVNGTSVLLDSQNGCGTGNSLELAEGCADPFAASVDPIHITKLELLQGRIPMIVRRTWPDGRTENIPVNELKVDKMLLDVQH | not soluble |
| VAERFVVTGGNRLSGEVAVGGAKNSVLKLMAATLLAEGTSTITNCPDILDVPLMAEVLRGLGATVELDGDVARITAPDEPKYDADFAAVRQFRASVCVLGPLVGRCKRARVALPGGDAIGSRPLDMHQAGLRQLGAHCNIEHGCVVARAETLRGAEIQLEFPSVGATENILMAAVVAEGVTTIHNAAREPDVVDLCTMLNQMGAQVEGAGSPTMTITGVPRLHPTEHRVIGDRIVAATWGIAAAMTRGDISVAGVDPAHLQLVLHKLHDAGATVTQTDASFRVTQYERPKAVNVATLPFPGFPTDLQPMAIALASIADGTSMITENVFEARFRFVEEMIRLGADARTDGHHAVVRGLPQLSSAPVWCSDIRAGAGLVLAGLVADGDTEVHDVFHIDRGYPLFVENLVSLGAEIERVCC | not soluble |
| MSLEQASVTNDFSENKQGCIQHPWQGKKVGYIGDSITDPNCYGDNIKKYWDFLKEWLGITPFVYGISGRQWDDVPRQAEKLKKEHGGEVDAILVFMGTNDYNSSVPIGEWFTEQEEQVLSAHGEMKKMVTRKKRTPVMTQDTYRGRINIGITQLKKLFPDKQIVLLTPLHRSLANFGDKNVQPDESYQNGCGEYIDAYVQAIKEAGNIWGIPVIDFNAVTGMNPMVEEQLIYFYDAGYDRLHPDTKGQERMARTLMYQLLALPVAFEGHHHHHH | soluble |
| MAYRDQPLGELALSIPRASALFRQYDMDYCCGGKQTLARAAARHDVDIDIIEAQLAQLAEQPIEKDWRAVPLADIIDHIVVRYHDRHREQLPELILQATKVERVHADKPNVPRGLTKYLTALHEELSSHMMKEEQILFPMIKQGMGRQATGPISVMESEHDEAGELVDVIKHVTKNVTPPPEACTTWKAMYNGINEMIDDLMEHISLENNVLFPRALAGE | not soluble |
| RLVDESALEEFLTREIGPAETFDVARHEQGHSNETLFVTWGDRELVVRRPPPGQTAETAHDVLREYRVIDALQDTAVPVPPTVTACDDQTIIGSDFYVMARVEGTVIRDDEPARFGSDDARAAVGTELVDTLAAIHEVDPTAVGLSDLGRADGYAKRQVARWGKQLAWAFERTAESRTIPELERVGSWLQDECPDDHPKTLVHGDYKLDNVMFGPGDDPELAAVFDWEMATLGDPRADLGWLLSYWRD | not soluble |
| MGSDKIHHHHHHMEIGIAASVSELDGVQWDALSDGSPLLSHAFLSALEHSGSVGEGTGWQPMPLTVRRDGKLIGAVPLYLKHHSYGEYVFDWSWAGAYTQHGGEYYPKLVAAVPFTPITGSRLLSHDPMLQAHMAEVLRDTVQRLQLSSAHVLFPDEQSAEVLSGQGWLRRQGVQFRWHNQGFASFDEFLMTLTHDKRKKIRQERRKVDAAGVICRRLLGAEIGEREWDFFYKCYVNTYLEHRSSPYLTQAFFHELGERLPGNVMLVLAERDGRRIGAALNLYDTDCLYGRYWGALAYVPNLHFELCYYQAQLFCIERGIRFFEGGAQGEHKLARGFVARETCSFHHIAHPDFEAAIRHFVSREAVGVSHYQQELDERAPYRKPG | not soluble |
| GAMDPREVILCKDQDGKIGLRLKSIDNGIFVQLVQANSPASLVGLRFGDQVLQINGENCAGWSSDKAHKVLKQAFGEKITMTIRDRPFERTITMHKDSTGHVGFIFKNGKITSIVKDSSAARNGLLTEHNICEINGQNVIGLKDSQIADILSTSGTVVTITIMPAF | soluble |
| RTVTLTRERIRLEDRAVKMSVKTVGKEKVGVLDIPGFYVGLTDDVKVQLQKLEKQNVSSVIIDLRSNGGGALTEAVSLSGLFIPSGPIVQVRDNNGKVREDSDTDGQVFYKGPLVVLVDRFSASASEIFAAAMQDYGRALVVGEPTFGKGTVQQYRSLNRIYDQMLRPEWPALGSVQYTIQKFYRVNGGSTQRKGVTPDIIMPTGNEETETGEKFEDNALPWDSIDAATYVKSGDLTAFEPELLKEHNARIAKDPEFQNIMKDIARFNAMKDKRNIVSLNYAVREKENNEDDATRLARLNERFKREGKPELKKLDDLPKDYQEPDPYLDETVNIALDLAKLEKARPAEQPA | not soluble |
| TPEHRAVAREVAAETFVLLKNENHLLPLEEKGKIALIGPMADARNNMCGMWSMTCTPSRHGTLLEGIRSAVGDKAEILYAKGSNVYYDAEMEKGAVGIRPLERGNDQQLLAEALRTAARADVIVAAVGECAEMSGESPSRTNLEIPDAQQDLLKALVKTGKPVVLLLFTGRPLILNWESEHIPSILNVWFGGSETGDAVADVLFGKAVPCGKLTTTFPRSVGQLPLFYNHLNTGRPDPDNRVFNRYASNYLDESNEPLYPFGYGLSYTDF | not soluble |
| MNQNDNRIFRKEDLDWKELETIGIHKEELEKSGDMELLLQGEETETVPLKIRTSALRLTMDATLRITVGTDGKPVMEINGISPEAESEAGG | not soluble |
| MEYSQIPSFAFYNNASIFQFFPRNKRLNTHQKSCLDEHARKMAVFMMERQEEYRYYENLANQEQFSDDACFSDTGMDSGFCSGATSTGQSASTSPAPAHLIPNPFFDPEYVAKAQSPVKLVANPFYNPELVKEIKKKSRVSV | not soluble |
| MQAFRAPSLATIDDVCGTRADGYDGAPLRSIPDFAVIVPMHNEEASVETLVAEIVTACQPVGQFEIVVVDDASSDRTVNAVLSLGDRYPMLRLVRHDRQGGQSAAIHSGVQAARAPVICMLDGDGQNPPDNLPALLAPLLSATATSRLGLVAGQRVGRRDTLGKRLSSRFANGLRARILKDGTRDTGCGLKAFRRDAYLALPYFDHHHRYFPALFNRDGWQVAHVDVTHRARLHGNSHYTNIGRALVGIHDLIGVVWLLRRRKRSSWAETFKTETSPLEHHHHHH | soluble |
| MGSDKIHHHHHHMALNKPKIVILGAGYGGLMTVTRLTKYVGPNDADITLVNKHNYHYETTWMHEASAGTLHHDRCRYQIKDVINQSRVNFVQDTVKAIKIDEKKVVLANGELQYDYLVIGLGAVPETFGIKGLKEYAFPIANINTSRLLREHIELQFATYNTEAEKRPDRLTIVVGGAGFTGIEFLGELAARVPELCKEYDVDRSLVRIICVEAAPTVLPGFDPELVDYAVHYLEENGVEFKIGTAVQECTPEGVRVGKKDEEPEQIKSQTVVWAAGVRGHPIVEEAGFENMRGRVKVNPDLRAPGHDNVFILGDSSLFMNEDTERPYPPTAQIAMQQGITVAKNLGRLIKGGELEEFKPDIKGTVASLGEHNAVGVVYGRKLKGTPASFMKKVIDNRSLFMIGGLGLTLKKGKFKFF | not soluble |
| MTARIYKPAKNAMQSGTAKTREWQLDYEPETPRTIEPLMGWTSSSDMQQQVSLRFHTRDEAVAYCEREGIPYQLIEPKEPVRRRAAYADNFAFRRPEPWTHLEHHHHHH | not soluble |
| MGRIKQGLDYFPLSTDFMHDRIVRRVMKREGDSAFTVLIYIMSYLYSGEGYYVRADTDFCDELSDQLFSTDNDTVRRVIRLFLEYGLFDSALYERYSILTSEDVQRQYLFITKRRSRHHICPDYCLLPEEKTTDEQPDTVAATGENVAVSPNIATASRDTATKTALIKRKEKEKKENIFPNPPFAKGGDEEEGSEGEKVAEGAGGGMREECDQRSATRKRNLTQEDIDRMQVPPDGCPRNFSGLLENLRLFRVPPAEQYAIVLKSNYGEIGGDIWKGFSVIRGSGGKIKLPGHYLLSVLNK | not soluble |
| GPGSMVPTLHPGEYIVFVPYTMLQVRRWFNAPLVNLSDVVVVKVSDDLSVCKRVVKCTSSRTQAEEWGKEHYVEVMPALYSPPAAQHTNGDDEDSTEIDSVANSERAYFDYVARNTVRSKDWDSCIDRIPNPSQWVWLEGDNKSESFDSRRCGPVPIECIRGLVLASIWPSPHTLQRPPPPPRASQLH | not soluble |
| MSLMKITSVDIIDVANDFASATSKWRPVVVKINTDEGISGFGEVGLAYGVGASAGIGMAKDLSAIIIGMDPMNNEAIWEKMLKKTFWGQGGGGIFSAAMSGIDIALWDIKGKAWGVPLYKMLGGKSREKIRTYASQLQFGWGDGSDKDMLTEPEQYAQAALTAVSEGYDAIKVDTVAMDRHGNWNQQNLNGPLTDKILRLGYDRMAAIRDAVGPDVDIIAEMHAFTDTTSAIQFGRMIEELGIFYYEEPVMPLNPAQMKQVADKVNIPLAAGERIYWRWGYRPFLENGSLSVIQPDICTCGGITEVKKICDMAHVYDKTVQIHVCGGPISTAVALHMETAIPNFVIHELHRYALLEPNTQTCKYNYLPKNGMYEVPELPGIGQELTEETMKKSPTITVKEGHHHHHH | soluble |
| NTITVSELLELIKKEDVIIVDTRSPREFKEETLPGAINIPLFLDDEHALIGKTYKQESREKAIEIATDIVEKSLKRILNEAKKLDRDKLIVVFCARGGMRSQTMALILQLLGFKVKRLIGGFKAFKHAVDK | not soluble |
